Experimental data: patent EP4670784A1 (Eberhard Karls Universität Tübingen (Medizinische Fakultät), dated 2025)
Residue numbers refer to the chain shown, from its start.

T1: Recombinant human G-CSFR (Glu25-Pro621, 381-GR/CF, R&D Systems) (human, UniProt Q99062 25-621)
T1 construct: range 25-621; Bought protein, amine-coupled to a CM5 chip for SPR; also called rhG-CSFR; granulocyte-colony stimulating factor receptor
T1 sequence (looked up): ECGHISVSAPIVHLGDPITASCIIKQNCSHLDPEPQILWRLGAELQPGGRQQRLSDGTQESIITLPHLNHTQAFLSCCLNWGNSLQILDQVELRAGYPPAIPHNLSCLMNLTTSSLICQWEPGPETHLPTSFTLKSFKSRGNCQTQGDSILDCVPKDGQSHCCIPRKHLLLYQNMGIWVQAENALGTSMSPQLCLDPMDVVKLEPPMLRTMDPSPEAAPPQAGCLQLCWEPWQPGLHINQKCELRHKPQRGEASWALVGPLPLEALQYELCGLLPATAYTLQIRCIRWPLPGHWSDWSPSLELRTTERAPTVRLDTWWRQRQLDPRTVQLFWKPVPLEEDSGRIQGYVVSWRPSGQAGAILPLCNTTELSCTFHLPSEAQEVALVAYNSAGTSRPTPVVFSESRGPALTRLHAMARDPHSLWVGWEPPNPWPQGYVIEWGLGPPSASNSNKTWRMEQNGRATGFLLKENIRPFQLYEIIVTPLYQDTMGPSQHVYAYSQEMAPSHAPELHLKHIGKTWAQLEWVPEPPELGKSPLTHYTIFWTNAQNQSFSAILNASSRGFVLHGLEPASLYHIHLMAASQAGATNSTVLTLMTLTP

T2: G-CSFR on Kasumi-1 cells (UniProt Q99062 25-836, limits assumed)
T2 sequence (looked up): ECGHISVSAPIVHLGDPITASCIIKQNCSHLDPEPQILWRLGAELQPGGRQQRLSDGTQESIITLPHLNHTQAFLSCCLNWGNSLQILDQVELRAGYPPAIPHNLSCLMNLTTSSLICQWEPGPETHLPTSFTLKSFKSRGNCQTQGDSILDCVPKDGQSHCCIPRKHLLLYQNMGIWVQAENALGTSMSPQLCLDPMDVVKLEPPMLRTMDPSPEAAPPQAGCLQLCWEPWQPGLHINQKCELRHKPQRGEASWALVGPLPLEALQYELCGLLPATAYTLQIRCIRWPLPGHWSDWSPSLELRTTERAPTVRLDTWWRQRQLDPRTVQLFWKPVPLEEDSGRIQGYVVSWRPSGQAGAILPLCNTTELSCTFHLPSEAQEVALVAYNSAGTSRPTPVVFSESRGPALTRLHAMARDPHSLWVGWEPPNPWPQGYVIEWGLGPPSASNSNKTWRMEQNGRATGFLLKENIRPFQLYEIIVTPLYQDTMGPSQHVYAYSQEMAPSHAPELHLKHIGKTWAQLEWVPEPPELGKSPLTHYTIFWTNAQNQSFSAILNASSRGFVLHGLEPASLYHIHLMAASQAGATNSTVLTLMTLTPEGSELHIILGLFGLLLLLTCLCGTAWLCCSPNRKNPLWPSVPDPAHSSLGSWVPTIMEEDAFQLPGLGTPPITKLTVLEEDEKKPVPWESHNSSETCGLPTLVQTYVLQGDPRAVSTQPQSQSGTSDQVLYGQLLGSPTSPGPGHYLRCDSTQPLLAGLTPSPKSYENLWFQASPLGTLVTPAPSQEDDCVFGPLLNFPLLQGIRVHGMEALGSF

T3: G-CSFR on NFS-60 cells (UniProt P40223 26-837, limits assumed)
T3 sequence (looked up): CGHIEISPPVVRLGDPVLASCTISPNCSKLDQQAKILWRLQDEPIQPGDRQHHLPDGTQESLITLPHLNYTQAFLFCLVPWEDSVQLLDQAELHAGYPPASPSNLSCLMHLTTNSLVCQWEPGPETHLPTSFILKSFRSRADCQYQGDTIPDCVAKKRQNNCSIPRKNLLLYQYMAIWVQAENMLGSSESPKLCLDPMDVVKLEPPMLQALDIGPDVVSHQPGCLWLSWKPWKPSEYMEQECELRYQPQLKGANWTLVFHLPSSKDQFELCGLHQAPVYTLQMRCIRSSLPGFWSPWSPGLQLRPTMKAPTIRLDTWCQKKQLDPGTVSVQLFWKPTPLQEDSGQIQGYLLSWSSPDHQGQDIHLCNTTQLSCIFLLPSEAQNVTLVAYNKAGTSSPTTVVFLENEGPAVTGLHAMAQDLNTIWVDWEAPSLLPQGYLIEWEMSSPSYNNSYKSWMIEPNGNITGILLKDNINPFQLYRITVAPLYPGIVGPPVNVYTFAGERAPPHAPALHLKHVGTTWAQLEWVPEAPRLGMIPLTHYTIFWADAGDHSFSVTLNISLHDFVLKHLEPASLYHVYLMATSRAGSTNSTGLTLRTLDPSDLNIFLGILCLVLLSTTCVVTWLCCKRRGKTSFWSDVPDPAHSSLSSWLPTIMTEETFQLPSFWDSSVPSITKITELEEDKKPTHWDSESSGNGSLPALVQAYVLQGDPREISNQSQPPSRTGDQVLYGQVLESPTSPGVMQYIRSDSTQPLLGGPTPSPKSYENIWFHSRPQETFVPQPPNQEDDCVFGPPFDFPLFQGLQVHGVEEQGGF

B1: bop3 (designed binder)
chain: MAALDAALYEIYDGLILYQQRLKSLEGISPELGPALDALRYDMADFAYLMAQAMEEGLDSLPQRFLWKALEMIRKIQADAAALREKLAATYKGNDRAAAAQSIARKLEEMLEKAYQILRHLAAA
notes: exclusively monomeric by SEC; Expressed from pET28a downstream of an N-terminal His-tag and thrombin cleavage site
B2: bop2 (designed binder)
chain: B1 chain with E10D, R21Q, K23E, Y48I, R64S, W67R, E112R, I117D
notes: Strictly monomeric in solution; Expressed from pET28a downstream of an N-terminal His-tag and thrombin cleavage site; also called bivalent-orientation parallel design 2
B3: bv6 (designed binder)
chain: MAALAAALAEIYKGLAEYQARLKSLEGISPELGPALDALRYDMADFAILMAQAMEEGLDSLPQSFLRKALEMIRKIQADAAALREKLAATYKGNDRAAAAVEIAAQLEAFLEKAYQILRHLAAA
notes: Expressed from pET28a downstream of an N-terminal His-tag and thrombin cleavage site; Minorly dimeric in solution; also called starting template
B4: bv24 (designed binder)
chain: B3 chain with Y41W, I48C, S64R, R67W
notes: Expressed from pET28a with N-terminal His-tag and thrombin cleavage site; also called Boskar4 variant bv24
B5: bv21 (designed binder)
chain: B3 chain with Y41W, I48Y, S64R, R67W
notes: Expressed from pET28a with N-terminal His-tag and thrombin cleavage site; also called Boskar4 variant bv21
B6: bv22 (designed binder)
chain: B3 chain with I48Y, S64R, R67W
notes: Expressed from pET28a with N-terminal His-tag and thrombin cleavage site; also called Boskar4 variant bv22; second-generation variant
B7: bv23 (designed binder)
chain: B3 chain with I48Y, R67W, K75W
notes: Expressed from pET28a with N-terminal His-tag and thrombin cleavage site; also called Boskar4 variant bv23
B8: bop1 (designed binder)
chain: B1 chain with Y48I, R64S, W67R
notes: De novo four-helix bundle, strictly monomeric in solution; Expressed from pET28a downstream of an N-terminal His-tag and thrombin cleavage site; also called bivalent-orientation parallel design 1
B9: boa1 (designed binder)
chain: MAALAAALQSIYRKLAEMQAKLKSLEGISPELGPALDALRYDMADFAILMAQAMEEGLDSLPQSFLRKALEMIRKIQADAAALREKLAATYKGNDRADAAVYIAADLEILLEQAYQILRHLAAA
notes: Strictly monomeric in solution; Expressed from pET28a downstream of an N-terminal His-tag and thrombin cleavage site; also called bivalent-orientation antiparallel design 1
B10: boa2 (designed binder)
chain: B9 chain with A20R, I103D, Q116E
notes: Strictly monomeric in solution; Expressed from pET28a downstream of an N-terminal His-tag and thrombin cleavage site; also called bivalent-orientation antiparallel design 2

Experiments:
[1] = target: T1, Recombinant human G-CSFR (Glu25-Pro621, …); assay: SPR, twofold dilution series from 20 nM bop3 against chip-immobilized G-CSFR (Fig. 14B); reference not named
[2] = target: T1, Recombinant human G-CSFR (Glu25-Pro621, …); assay: SPR, Biacore X100, multi-cycle kinetics, rhG-CSFR amine-coupled to CM5 chip, design as analyte, 1:1 model; series of Fig. 15C (from 20 nM)
[3] = target: T2, G-CSFR on Kasumi-1 cells; assay: cell-based or functional assay
[4] = target: T3, G-CSFR on NFS-60 cells; assay: cell-based or functional assay
[5] = target: T1, Recombinant human G-CSFR (Glu25-Pro621, …); assay: SPR, rhG-CSFR on CM5 chip (Fig. 3E)
[6] = target: T1, Recombinant human G-CSFR (Glu25-Pro621, …); assay: SPR, Biacore X100, multi-cycle kinetics, rhG-CSFR amine-coupled to CM5 chip, design as analyte, 1:1 model; series of Fig. 6 (from 20 nM)
[7] = target: T1, Recombinant human G-CSFR (Glu25-Pro621, …); assay: SPR, Biacore X100, multi-cycle kinetics, rhG-CSFR amine-coupled to CM5 chip, design as analyte, 1:1 model; series of Fig. 13 (from 125 nM)
[8] = target: T1, Recombinant human G-CSFR (Glu25-Pro621, …); assay: not stated in the sentence (SPR values of Table 2 agree)
[9] = target: T1, Recombinant human G-CSFR (Glu25-Pro621, …); assay: SPR, Biacore X100, multi-cycle kinetics, rhG-CSFR amine-coupled to CM5 chip, design as analyte, 1:1 model; series of Fig. 13 (from 31 nM)

Binder	Kd [2] [nM]	koff [2] [s⁻¹]	kon [2] [M⁻¹ s⁻¹]	Kd [6] [nM]	koff [6] [s⁻¹]	kon [6] [M⁻¹ s⁻¹]	Kd [9] [nM]	koff [9] [s⁻¹]	kon [9] [M⁻¹ s⁻¹]	also measured
B1	1.2	0.0018	1.5e+06							fold improvement in the receptor-binding affinity [1]: 10 fold; IC50, Kasumi-1 competitive inhibition assay, 400 pg/mL rhG-CSF [3]: 1.97 nM; fold improvement in inhibitory potency compared to bop1, NFS-60 competitive inhibition assay [4]: 3 fold
B2				0.85	0.0013	1.9e+06				fold tighter binding than bv6 [5]: 4 fold
B3				4.3	0.0051	1.2e+06				Kd [7]: 14 nM; koff [7]: 0.0033 s⁻¹; kon [7]: 240000 M⁻¹ s⁻¹; fold tighter binding than Boskar4 [8]: 12 fold
B4							1.7	0.0017	1e+06	
B5							1.4	0.0011	820000	
B6	1.3	0.0018	1.4e+06				1.1	0.00092	880000	
B7							1.8	0.0015	860000	
B8	3.2	0.0063	2e+06	2.7	0.0022	880000				
B9				3.7	0.0024	690000				
B10				1.1	0.0013	1.4e+06				fold tighter binding than bv6 [5]: 4 fold
